Biological target: T1, wild-type human B7-H2Ig fusion protein (human, UniProt O75144 19-256)
T1 sequence (looked up): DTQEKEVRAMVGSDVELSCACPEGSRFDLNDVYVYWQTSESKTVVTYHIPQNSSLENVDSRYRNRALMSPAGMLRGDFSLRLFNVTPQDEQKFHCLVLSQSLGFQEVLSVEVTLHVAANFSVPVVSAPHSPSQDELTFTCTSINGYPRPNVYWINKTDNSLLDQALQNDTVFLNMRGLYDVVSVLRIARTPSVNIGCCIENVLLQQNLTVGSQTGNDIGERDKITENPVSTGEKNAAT
Experiment: flow cytometry on cells

B1: human ICOSIg fusion protein (Fc fusion, UniProt Q9Y6W8 21-140, looked up)
chain: EINGSANYEMFIFHNGGVQILCKYPDIVQQFKMQLLKGGQILCDLTKTKGSGNTVSIKSLKFCHSQLSNNSVSFFLYNLDHSHANYYFCNLSIFDPPPFKVTLTGGYLHIYESQLCCQLK
Question: Does B1 bind?
Answer: Result: binds

— PMC3103603 (Immunity, 2011)
